B1: cyno TSLP (ligand, cynomolgus (cyno))
chain: YDFTNCDFQKIEADYLRTISKDLITYMSGTKSTDFNNTVSCSNRPHCLTEIQSLTFNPTPRCASLAKEMFARKTKATLALWCPGYSETQINATQAMKKRRKRKVTTNKCLEQVSQLLGLWRRFIRTLLKKQ
notes: As used in solution in the KinExA assay; also called Cynomolgus TSLP
B2: Fab1 (Fab, V domains shown)
VH: QMQLVESGGGVVQPGRSLRLSCAASGFTFRTYGMHWVRQAPGKGLEWVAVIWYDGSNKHYADSVKGRFTITRDNSKNTLNLQMNSLRAEDTAVYYCARAPQWELVHEAFDIWGQGTMVTVSS
VL: SYVLTQPPSVSVAPGQTARITCGGNNLGSKSVHWYQQKPGQAPVLVVYDDSDRPSWIPERFSGSNSGNTATLTISRGEAGDEADYYCQVWDSSSDHVVFGGGTKLTVLG
notes: CDRs of anti-TSLP mAb A5 (WO 2009/035577) cloned into an IgG1 Fab scaffold; also called anti-TSLP Fab; MEDI8630

Assay [1] concerns the target B2. The experiment in a line: KinExA, cyno TSLP titrated into 1000 pM fixed Fab1 (filled diamonds); free Fab1 captured on hu TSLP-coated beads. For orientation: In KinExA the mixture passes briefly over coated beads that capture the unbound partner.
The target of assay [2] is B2. The experiment in a line: KinExA, cyno TSLP titrated into 40 pM fixed Fab1 (open squares); free Fab1 captured on hu TSLP-coated beads.
The assay “cyno TSLP” has as its target B1. The experiment in a line: KinExA, solution phase, global 1:1 fit.
Assay [3] concerns the target T1, N-terminally tagged biotinylated cyno TSLP (cynomolgus (cyno), UniProt A0A7N9CAT7 29-159, biotinylated (site not stated)).
T1 construct: Captured on streptavidin in the Biacore assay; also called Cynomolgus TSLP; recombinant mammalian cell-expressed cyno TSLP; not shown: N-terminal tag
The experiment in a line: SPR (Biacore 8K), biotinylated TSLP on streptavidin, Fab1 in flow, 1:1 Langmuir model. Background: In SPR one partner is held on a chip, and binding of the other changes the refractive index at the surface.

In assay [4] the target is T2, biotinylated His-Avi hu TSLP (human, UniProt Q969D9 29-159, biotinylated (site not stated)).
T2 construct: also called biotinylated TSLP; not shown: His-Avi tag
The experiment in a line: HTRF competition; competitor DyLight-labelled tezepelumab. On the technique in general: Time-resolved FRET reads energy transfer from a long-lived donor to a nearby acceptor.

Here are results for ten molecules from patent US20210121406A1 (AstraZeneca / MedImmune, published 2021).

Take B1: the “IC50 (read off the curve)” value in the assay with Fab1 [1] was approximately 0.6 nM; with Fab1 [2], approximately 0.04 nM. Take B2: the Kd with cyno TSLP amounted to 0.0136 nM; in assay [3], 0.0884 nM.

B3: Fab2 (Fab, V domains shown)
VH: QMQLVESGGGVVQPGRSLRLSCAASGFTFRTYGMHWVRQAPGKGLEWVAVIWYDGSNKHYADSVKGRFTITRDNSKNTLNLQMNSLRAEDTAVYYCARAPQWELVHEAFDIWGQGTMVTVSS
VL: SYVLTQPPSVSVAPGQTARITCGGNNIGSKSVHWYQQKPGQAPVLVVYDDSDRPSWIPERFSGSNSGNTATLTISRGEAGDEADYYCQVWDSSSDHVVFGGGTKLTVL
In turn, B3 displayed an IC50 in assay [4] of 0.29 nM.

B4: Fab8 (Fab, V domains shown)
VH: QMQLVESGGGVVQPGRSLRLSCAASGFTFRTYGMHWVRQAPGKGLEWVAVIWYDGSNKHYADSVKGRFTITRDNSKNTLNLQMNSLRAEDTAVYYCARAPQWELVHEAFDIWGQGTMVTVSS
VL: SYVLTQPPSVSVAPGQTARITCGGNNLGSKSVHWYQQKPGQAPVLVVYDDSDRPSWIPERFSGSNSGNTATLTISRGEAGDEADYYCQVWDTSSDHVVFGGGTKLTVL
notes: Only the changed VL is printed
For the molecule B4, in assay [4], the half-inhibitory concentration (IC50) turned out to be 0.29 nM.

B5: Fab3 (Fab, V domains shown)
VH: QMQLVESGGGVVQPGRSLRLSCAASGFTFRTYGMHWVRQAPGKGLEWVAVIWYDGSNKHYADSVKGRFTITRDNSKNTLNLQMNSLRAEDTAVYYCARAPQWELVHEAFDIWGQGTMVTVSS
VL: SYVLTQPPSVSVAPGQTARITCGGNNVGSKSVHWYQQKPGQAPVLVVYDDSDRPSWIPERFSGSNSGNTATLTISRGEAGDEADYYCQVWDSSSDHVVFGGGTKLTVL
notes: as for B4
The molecule B5 showed a half-inhibitory concentration (IC50) in assay [4] of 0.24 nM.

B6: Fab4 (Fab, V domains shown)
VH: QMQLVESGGGVVQPGRSLRLSCAASGFTFRTYGMHWVRQAPGKGLEWVAVIWYDGSNKHYAESVKGRFTITRDNSKNTLNLQMNSLRAEDTAVYYCARAPQWELVHEAFDIWGQGTMVTVSS
VL: SYVLTQPPSVSVAPGQTARITCGGNNLGSKSVHWYQQKPGQAPVLVVYDDSDRPSWIPERFSGSNSGNTATLTISRGEAGDEADYYCQVWDSSSDHVVFGGGTKLTVL
notes: Only the changed VH is printed
Consider B6, for which the IC50 in assay [4] is 0.36 nM.

B7: Fab5 (Fab, V domains shown)
VH: QMQLVESGGGVVQPGRSLRLSCAASGFTFRTYGMHWVRQAPGKGLEWVAVIWYDGSNKHYADSVKARFTITRDNSKNTLNLQMNSLRAEDTAVYYCARAPQWELVHEAFDIWGQGTMVTVSS
VL: SYVLTQPPSVSVAPGQTARITCGGNNLGSKSVHWYQQKPGQAPVLVVYDDSDRPSWIPERFSGSNSGNTATLTISRGEAGDEADYYCQVWDSSSDHVVFGGGTKLTVL
notes: as for B6
In the case of B7, the concentration for half-maximal inhibition (IC50) in assay [4] is 0.42 nM.

B8: Fab6 (Fab, V domains shown)
VH: QMQLVESGGGVVQPGRSLRLSCAASGFTFRTYGMHWVRQAPGKGLEWVAVIWYDGSNKHYADSVKGRFTITRDNSKNTLNLQMNSLRAEDTAVYYCARAPQWELVHEAFDIWGQGTMVTVSS
VL: SYVLTQPPSVSVAPGQTARITCGGQNLGSKSVHWYQQKPGQAPVLVVYDDSDRPSWIPERFSGSNSGNTATLTISRGEAGDEADYYCQVWDSSSDHVVFGGGTKLTVL
notes: as for B4
Molecule B8 yielded an IC50 in assay [4] of 0.32 nM.

B9: Fab7 (Fab, V domains shown)
VH: QMQLVESGGGVVQPGRSLRLSCAASGFTFRTYGMHWVRQAPGKGLEWVAVIWYDGSNKHYADSVKGRFTITRDNSKNTLNLQMNSLRAEDTAVYYCARAPQWELVHEAFDIWGQGTMVTVSS
VL: SYVLTQPPSVSVAPGQTARITCGGNQLGSKSVHWYQQKPGQAPVLVVYDDSDRPSWIPERFSGSNSGNTATLTISRGEAGDEADYYCQVWDSSSDHVVFGGGTKLTVL
notes: VL as labelled 'LIGHT CHAIN VL FAB7'
In assay [4], B9 showed an IC50 of 0.24 nM.

B10: Fab9 (Fab, V domains shown)
VH: QMQLVESGGGVVQPGRSLRLSCAASGFTFRTYGMHWVRQAPGKGLEWVAVIWYDGSNKHYADSVKGRFTITRDNSKNTLNLQMNSLRAEDTAVYYCARAPQWELVHEAFDIWGQGTMVTVSS
VL: SYVLTQPPSVSVAPGQTARITCGGNNLGSKSVHWYQQKPGQAPVLVVYDDSDRPSWIPERFSGSNSGNTATLTISRGEAGDEADYYCQVWDSTSDHVVFGGGTKLTVL
notes: as for B4
In assay [4], B10 yielded an IC50 of 0.29 nM.

As usually defined, the Kd is the equilibrium constant for the complex coming apart. High values mean a looser complex, low ones a tighter complex. In general, IC50 refers to the point on the concentration scale where inhibition reaches its midpoint. A lower IC50 goes with inhibition by little substance.
